Laboratory results reported in patent US10005846 (LIFEARC, dated 2018).
Changes are numbered by the printed parent chain.

T1: human transglutaminase type 2 (TG2) (human, UniProt P21980 1-687)
T1 construct: Recombinant full-length human TG2 (Zedira; cat; T002 in the Biacore work); Also used here for the endogenous TG2 of HepG2 lysate and HK-2 cells; also called hTG2; rhTG2
T1 sequence: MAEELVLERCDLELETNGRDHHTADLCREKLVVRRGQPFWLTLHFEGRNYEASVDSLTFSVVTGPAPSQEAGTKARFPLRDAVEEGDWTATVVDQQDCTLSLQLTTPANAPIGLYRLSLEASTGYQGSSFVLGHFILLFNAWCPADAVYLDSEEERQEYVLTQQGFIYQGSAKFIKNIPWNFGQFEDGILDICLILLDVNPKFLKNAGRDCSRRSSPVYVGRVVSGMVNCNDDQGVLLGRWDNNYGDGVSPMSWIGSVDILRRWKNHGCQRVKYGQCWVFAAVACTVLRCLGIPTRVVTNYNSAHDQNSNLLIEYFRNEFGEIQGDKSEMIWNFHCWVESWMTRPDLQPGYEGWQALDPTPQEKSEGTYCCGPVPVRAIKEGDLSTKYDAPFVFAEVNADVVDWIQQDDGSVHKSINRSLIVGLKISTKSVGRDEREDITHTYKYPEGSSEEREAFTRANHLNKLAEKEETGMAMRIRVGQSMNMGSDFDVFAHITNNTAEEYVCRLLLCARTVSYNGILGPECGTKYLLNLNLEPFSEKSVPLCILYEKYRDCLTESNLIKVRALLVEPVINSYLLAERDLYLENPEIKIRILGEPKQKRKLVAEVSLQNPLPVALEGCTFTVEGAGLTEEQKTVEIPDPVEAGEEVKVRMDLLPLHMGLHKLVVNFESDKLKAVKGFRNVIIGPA

T2: rat TG2 (rat, UniProt Q9WVJ6 1-686, limits assumed)
T2 sequence: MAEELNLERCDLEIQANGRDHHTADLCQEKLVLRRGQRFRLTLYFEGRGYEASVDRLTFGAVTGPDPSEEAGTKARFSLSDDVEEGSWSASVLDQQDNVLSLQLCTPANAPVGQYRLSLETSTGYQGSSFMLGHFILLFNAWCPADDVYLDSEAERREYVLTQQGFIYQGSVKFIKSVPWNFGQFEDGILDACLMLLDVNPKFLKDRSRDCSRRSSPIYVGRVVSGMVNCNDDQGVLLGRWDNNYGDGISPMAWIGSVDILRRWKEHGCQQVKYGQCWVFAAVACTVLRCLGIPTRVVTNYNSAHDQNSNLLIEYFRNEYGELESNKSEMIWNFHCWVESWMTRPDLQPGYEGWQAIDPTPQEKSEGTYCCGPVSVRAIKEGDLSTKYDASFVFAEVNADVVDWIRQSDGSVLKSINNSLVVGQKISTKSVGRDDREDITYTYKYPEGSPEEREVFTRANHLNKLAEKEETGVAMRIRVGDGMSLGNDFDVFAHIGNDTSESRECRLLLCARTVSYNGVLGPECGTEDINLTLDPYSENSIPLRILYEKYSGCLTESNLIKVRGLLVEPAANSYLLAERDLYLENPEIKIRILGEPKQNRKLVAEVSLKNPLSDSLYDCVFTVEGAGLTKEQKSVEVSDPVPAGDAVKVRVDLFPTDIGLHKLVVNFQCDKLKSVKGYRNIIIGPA

B1: cBB001 chimeric antibody (murine BB7 variable regions) (antibody, human IgG1, V domains shown)
VH: AVQLVESGGGLVKPGGSLKLSCAASGIIFSSSAMSWVRQTPEKRLEWVATISSGGRSTYYPDSVKGRFTVSRDSAKNTLYLQMDSLRSEDTAIYYCAKLISPYWGQGTTLTVSS
VL: AIKMTQSPSSMYASLGERVIITCKASQDINSYLTWFQQKPGKSPKTLIYLTNRLMDGVPSRFSGSGSGQEFLLTISGLEHEDMGIYYCLQYVDFPYTFGGGTKLEIK
notes: also called chimeric BB7
B2: cDH001 chimeric antibody (murine DH2 variable regions) (antibody, human IgG1, V domains shown)
VH: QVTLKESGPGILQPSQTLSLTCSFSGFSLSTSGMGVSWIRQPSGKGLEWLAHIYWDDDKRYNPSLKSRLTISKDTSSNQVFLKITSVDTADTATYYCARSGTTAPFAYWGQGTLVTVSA
VL: QIVLTQSPAIMSASPGEKVTMTCSASSSVSYMYWYQQKPGSSPRLLIYDTSNLASGVPVRFSGSGSGTSYSLTISRMEAEDAATFYCQQWSSSPLTFGAGTKLELK
B3: cDD9001 chimeric antibody (murine DD9 variable regions) (antibody, human IgG1, V domains shown)
VH: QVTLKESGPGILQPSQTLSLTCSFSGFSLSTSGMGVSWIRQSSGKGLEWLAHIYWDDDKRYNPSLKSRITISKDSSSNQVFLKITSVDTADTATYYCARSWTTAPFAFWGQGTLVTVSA
VL: B2 VL with S30D, E78G, F85Y, S91N
B4: EH6 murine monoclonal antibody (antibody, V domains shown)
VH: EVQLQQSGPELVKPGASVKMSCKASGYTFTSYVMHWVKQKPGQGLEWIGFINPYNDGTKYNEKFKGKATLTSDKASTTAYMELSSLTSEDSAVYYCARFSSGYWGQGTTLTVSS
VL: DVLMTQTPLSLPVSLGDQASISCRSSQSIVHSNGNTYLEWYLQKPGQSPKLLIYKVSNRFSGVPDRFSGSGSGTDFTLKISRVGAEDLGVYYCLQVSHVPFTFGSGTKLEIK
notes: Mouse hybridoma IgG; heavy chain amplified with primer MHCG2B, kappa light chain
B5: BB7 murine monoclonal antibody (antibody, V domains shown)
VH: B1 VH
VL: B1 VL
notes: Mouse hybridoma IgG; heavy chain amplified with primer MHCG1, kappa light chain; also called mBB001
B6: DD9 murine monoclonal antibody (antibody, V domains shown)
VH: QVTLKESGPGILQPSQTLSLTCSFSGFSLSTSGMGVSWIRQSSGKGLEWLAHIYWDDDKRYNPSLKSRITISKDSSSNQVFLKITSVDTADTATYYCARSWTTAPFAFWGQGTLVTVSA
VL: B2 VL with S30D, E78G, F85Y, S91N
notes: Mouse hybridoma IgG; heavy chain amplified with primer MHCG2A, kappa light chain; also called mDD9001

Each binder was assayed against T1, human transglutaminase type 2 (TG2) (assay: SPR (Biacore T200), antibody captured on anti-human IgG1 Fc chip, TG2 injected; -Ca2+).
Procedure: Recombinant cynomolgus monkey TG2 was obtained from Trenzyme. Surface plasmon resonance (SPR) was measured on a Biacore T200 instrument (GE Healthcare). CM5 chips (GE Healthcare cat. no.: BR-1006-68) were coated with monoclonal mouse anti-human IgG1 (Fc) (MAH) antibody (GE Healthcare cat. no.: BR-1008-39) by amine-coupling as described in the manufacturers instructions. HBS-EP+ buffer (0.01 M HEPES, 0.15 M NaCl, 3 mM EDTA, 0.05% v/v Surfactant P20) and HBS-P+ buffer (0.01 M HEPES, 0.15 M NaCl, 0.05% Surfactant P20) were purchased from GE Healthcare as 10× stocks (cat. nos.: BR-1006-69 and BR-1006-71). Calcium Chloride solution was obtained from Sigma Aldrich (cat. no.:21115).
The method employed to determine the affinity of the anti-TG2 antibodies involved the capture of the chimeric or humanised antibodies on a MAH coated CM5 chip, followed by the injection of a series of TG2 samples in running buffer. The running buffer was 1×HBS-P+ containing 1 mM CaCl_2, or 1×HBS-EP+ for calcium-free experiments. Antibody capture was carried out for a contact time of 120 seconds at a flow rate of 10 μl/min resulting in the capture of approximately 40-80 RU. TG2 was injected over the immobilised antibody at concentrations ranging from 25 nM to 400 nM with a contact time up to 600 seconds at a flow rate of 30 μl/min. Dissociation of TG2 was typically measured for up to 5400 seconds (1.5 hours). Regeneration of the chip was then performed using 3 M MgCl_2, for a contact time of 60 seconds at a flow rate of […], followed by a 300 s stabilisation period before the next sample. For each of human and cynomolgus monkey TG2, at least 5 injections at a variety of concentrations were performed in at least two separate experiments.
Kinetic data were exported from the Biacore T200 Evaluation Software and analysed using GraphPad Prism, where the association phases and dissociation phases were analysed separately using a one phase association model and one-phase exponential decay model respectively. Association rates ($kon$) were calculated for each curve individually, and dissociation rates ($koff$) values from the long dissociation phase data collected. Where $koff$ values were calculated to be $<1\times10^-5$ s^-1, values were set at 1×10^-5 for analysis, as rates slower than this could not be estimated accurately.

Kd [nM] | koff [s⁻¹] | kon [M⁻¹ s⁻¹] | Binder
< 0.07 | < 1e-05 | 150000 | B1
23 | 0.00049 | 21000 | B2
3.1 | 7.1e-05 | 23000 | B3

What follows are binders tested against T2, rat TG2 (assay: cell-based or functional assay).

IC50 of TG2 activity, 3H putrescine incorporation [mg/ml IgG per ng TG2] | Binder
0.000403 | B4
0.00032 | B5
0.000303 | B6
